Laboratory results: patent US9383366B2, “Blue fluorescent protein and methods of use thereof” (WiSys Technology Foundation, Inc., priority 2013, dated 2016)

Key:
[1] = Spectral properties (absorption and fluorescence emission) of Sandercyanin protein; format: physicochemical
[2] = system: hydra; experiment: Injection of Sandercyanin protein into hydra, fluorescence localization; format: in vivo; conditions: injected into hydra
Source text: We are currently imploring the localization of Sandercyanin in model organisms.

[3] = on excitation at 380 nm and 630 nm; cited from earlier work
[4] = band maximum used for Stokes shift

B1: Sandercyanin protein: native blue fluorescent bili-binding lipocalin protein from walleye mucus, SEQ ID NO: 1 (protein)
chain: QFIKPGRCPKPAVQEDFDAARYLGVWYDIQRLPNKFQKGECATATYSLSPGVGFSVFNRERLANGTIKSVIGSAIAEDPCEPAKLQFFHENAAPVPYWVLSTDYDNYALVYSCINLGASHAAYASIVSRQPTLPEETIKKLQGTMSSFGVGVDTLLTTNQDAAYCSAMNQ
modifications: Sandercyanin
[1]; [4]
  absorption: 375 nm
  emission: 675 nm
[1]; difference between absorption and emission band maxima
  Stokes shift: ~300 nm
[2]
  fluorescence after injection: showed fluorescence on the surface of tentacles
[3]
  emission maxima: 678 nm
